WO2020216210A1 (dated 2020)

Target: T1, human EpCAM full-length protein (on MCF-7 and A431 cells) (human, UniProt P16422 24-314)
T1 construct: Endogenous EpCAM on the cell lines MCF-7 and A431 (ATCC); also called CD326; epithelial cell adhesion molecule
T1 sequence: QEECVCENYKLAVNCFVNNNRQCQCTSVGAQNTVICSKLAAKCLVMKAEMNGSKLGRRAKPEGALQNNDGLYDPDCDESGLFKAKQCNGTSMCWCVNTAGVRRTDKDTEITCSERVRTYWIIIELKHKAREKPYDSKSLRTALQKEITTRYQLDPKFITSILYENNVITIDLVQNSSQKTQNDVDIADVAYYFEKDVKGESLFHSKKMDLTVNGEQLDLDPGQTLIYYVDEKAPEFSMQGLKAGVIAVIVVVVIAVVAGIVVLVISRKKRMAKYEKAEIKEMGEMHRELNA
Experiment: flow cytometry (FACS) on MCF-7 and A431 cells, Alexa Fluor 488 goat anti-human IgG detection

| Binder | binding result |
| --- | --- |
| fully human antibody h1905 (antibody, human IgG1, kappa, V domains shown, Complete antibody VH-CH1-FC/VL-CL built from a phage scFv) VH: QMQLVQSGAEVKKPGASVKVSCKASGYTFTSYDINWVRQATGQGLEWMGWMNPNSGNTGYAQKFQGRVTMTRNTSISTAYMELSSLRSEDTAVYYCARGVVVVVAATRGHYYYYYGMDVWGQGTTVTVSS VL: DIQMTQSPSSLSASIGDRVSMTCRASQSVTKYLNWYQQTPGKPPKLLIFSASHLQTGVPSRFSGSGSGTDFTLTIDSLQPEDVATYYCQQSYSTPFTFGQGTKVEIKR | binds |
| fully human antibody h1907 (antibody, human IgG1, kappa, V domains shown, Complete antibody VH-CH1-FC/VL-CL built from a phage scFv) VH: QVTLKESGPTLVKPTQTLTLTCTFSGFSLSTSGVAVGWIRQPPGKALEWLALIYWDADTRYSPSLKSRLTITKDTSKNQVVLTMTNMDPVDTATYYCAHRPHGSGSYYAFDYWGQGILVTVSS VL: DIVMTQSPSSLSASVGDRVTISCRASQNIRNYLNWYQHRPGEAPKLLISGVSRLQNGVPSRFSGSGSGTDFTLTIRSLQSEDFATYYCQQSYINWTFGQGTKVEIKR | binds |
